T1: Fusion protein of LAG-3 extracellular region and mIgG2a Fc (human)
T1 construct: Limits of the signal peptide are marked only by lost underlining; also called LAG-3-mFc; LAG-3-mFc fusion protein
T1 chain: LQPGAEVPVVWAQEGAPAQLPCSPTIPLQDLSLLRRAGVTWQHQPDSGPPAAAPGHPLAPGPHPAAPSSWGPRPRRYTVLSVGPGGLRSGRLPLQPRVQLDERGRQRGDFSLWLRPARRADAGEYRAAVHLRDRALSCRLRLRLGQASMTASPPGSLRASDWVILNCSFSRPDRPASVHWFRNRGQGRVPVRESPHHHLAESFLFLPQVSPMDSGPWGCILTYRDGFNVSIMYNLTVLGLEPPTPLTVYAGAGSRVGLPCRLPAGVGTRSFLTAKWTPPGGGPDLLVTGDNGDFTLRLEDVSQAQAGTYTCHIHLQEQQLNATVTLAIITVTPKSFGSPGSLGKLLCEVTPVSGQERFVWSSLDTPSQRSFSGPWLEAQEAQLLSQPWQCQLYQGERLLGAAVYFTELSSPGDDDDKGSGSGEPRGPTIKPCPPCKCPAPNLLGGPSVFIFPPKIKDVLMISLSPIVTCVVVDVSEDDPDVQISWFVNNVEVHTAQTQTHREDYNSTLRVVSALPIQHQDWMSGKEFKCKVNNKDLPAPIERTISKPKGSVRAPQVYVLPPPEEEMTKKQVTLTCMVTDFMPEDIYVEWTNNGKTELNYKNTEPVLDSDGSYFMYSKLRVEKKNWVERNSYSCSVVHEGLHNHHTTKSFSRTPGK


Key:
[1] = biological target: T2, Fusion protein of LAG-3 extracellular region and hIgG1 Fc (human); experiment: competition: biotin-LAG-3-Fc binding to fixed Daudi cells, antibody titrated
T2 construct: Limits of the signal peptide are marked only by lost underlining; also called LAG-3-Fc; LAG-3-Fc fusion protein
Protocol: Daudi cells (human leukemia cells, purchased from the cell bank in Chinese Academy of Sciences) were seeded in 96-well plate with a density of 3×10⁵/well. After centrifugation at 1000 rpm, the supernatant was discarded and then the plate was fixed with 4% PFA for 30 min at room temperature. The plate was washed 4 times with PBS after discarding the fixed solution, and the plate was blocked with 200 μl/well of blocking solution containing 5% skim milk (Bright Dairy, skim milk powder) diluted in PBS, and incubated at 37° C. for 2.5 hours. After blocking, the blocking solution was discarded and the plate was washed 5 times with PBST buffer (pH7.4 PBS containing 0.05% tween-20), added with 50 μl/well mixture of biotin-labeled (Biotin labeling kit, Dojindo Chemical, Cat No. LK03) LAG-3-Fc fusion protein (produced in-house, SEQ ID NO: 3) and gradient concentrations of the antibody to be tested, wherein the biotin-labeled LAG-3-Fc fusion protein has been diluted with sample diluent (PH7.4 PBS containing 1% BSA) at a final concentration of 0.4 μg/ml, and pre-mixed for an hour, then the plate was incubated at 37° C. for 1 h. The reaction solution was discarded and the plate was washed 5 times with PBST after incubation, 50 μl/well of HRP-labeled Streptavidin (Sigma, Cat No. 52438) diluted with sample diluent was added, and the plate was incubated at 37° C. for 1 h. After washing the plate 5 times with PBST, 50 μl/well of TMB chromogenic substrate (KPL, Cat No. 52-00-03) was added to each well, and incubated at room temperature for 5-15 min, the reaction was stopped by the addition of 50 μl 1M H₂SO₄ to each well. The OD value at a wavelength of 450 nm was read on NOVOStar microplate reader, and then the activity of the LAG-3 antibody in blocking the binding of the antigen to Daudi cells was calculated.

[2] = biological target: T1, Fusion protein of LAG-3 extracellular …; experiment: ELISA, LAG-3-mFc captured by anti-mouse Fc on plate (which fusion: inferred)
Source text: The binding ability of anti-LAG-3 antibody to human LAG-3 protein was detected by ELISA assay. LAG-3 fusion protein with Fc or mFc tag was immobilized into 96-well microtiter plate by binding to anti-Fc or anti-mFc antibody coated on the microtiter plate, the strength of the signal after the addition of the antibody was used to determine the binding activity of the antibody to LAG-3, the specific experimental method is as follows.
The goat anti-human Fc antibody (Jackson Immuno Research, Cat No. 109-005-008) or goat anti-mouse Fc antibody (Sigma, Cat No. M3534-1ML) was diluted to a concentration of 2 μg/ml with PBS buffer at pH 7.4 (Sigma, Cat No. P4417-100TAB), and added to a 96-well plate at a volume of 50 μl/well and then, the plate was incubated in the incubator at 37° C. for 2 hours. After discarding the liquid, the plates were blocked with 200 μl/well of blocking solution containing 5% skim milk (Bright Dairy, skim milk powder) in PBS, and incubated in the incubator at 37° C. for 2.5 hours or overnight at 4° C. (16-18 hours). After blocking, the blocking solution was discarded and the plate was washed 5 times with PBST buffer (PH7.4 PBS containing 0.05% tween-20). LAG-3-Fc fusion protein (SEQ ID NO:3, produced in-house) or LAG-3-mFc fusion protein (SEQ ID NO: 4, produced in-house) was diluted with sample diluent (PH7.4 PBS containing 1% BSA) to 1 μg/ml and was added to each well, 50 μl/well. Then the plate was incubated in the incubator at 37° C. for 1 h or overnight at 4° C. After incubation, the reaction solution in the plate was discarded, and the plate was washed with PBST for 6 times, and then was added with 50 μl/well of various concentrations of antibodies to be tested (hybridoma purified antibody or humanized antibody) which have been diluted with sample diluent, and the plate was incubated at 37° C. for 1 h. The plates was washed 5 times with PBST after incubation, and was added with 100 μl/well of goat anti-mouse (Jackson Immuno Research, Cat No. 115-035-003) or goat anti-human secondary antibody (Jackson Immuno Research, Cat No. 109-035-003) labeled with HRP, diluted in sample diluent, and the plate was incubated at 37° C. for 1 h.

T2 sequence (chain, as listed by the source limits assumed): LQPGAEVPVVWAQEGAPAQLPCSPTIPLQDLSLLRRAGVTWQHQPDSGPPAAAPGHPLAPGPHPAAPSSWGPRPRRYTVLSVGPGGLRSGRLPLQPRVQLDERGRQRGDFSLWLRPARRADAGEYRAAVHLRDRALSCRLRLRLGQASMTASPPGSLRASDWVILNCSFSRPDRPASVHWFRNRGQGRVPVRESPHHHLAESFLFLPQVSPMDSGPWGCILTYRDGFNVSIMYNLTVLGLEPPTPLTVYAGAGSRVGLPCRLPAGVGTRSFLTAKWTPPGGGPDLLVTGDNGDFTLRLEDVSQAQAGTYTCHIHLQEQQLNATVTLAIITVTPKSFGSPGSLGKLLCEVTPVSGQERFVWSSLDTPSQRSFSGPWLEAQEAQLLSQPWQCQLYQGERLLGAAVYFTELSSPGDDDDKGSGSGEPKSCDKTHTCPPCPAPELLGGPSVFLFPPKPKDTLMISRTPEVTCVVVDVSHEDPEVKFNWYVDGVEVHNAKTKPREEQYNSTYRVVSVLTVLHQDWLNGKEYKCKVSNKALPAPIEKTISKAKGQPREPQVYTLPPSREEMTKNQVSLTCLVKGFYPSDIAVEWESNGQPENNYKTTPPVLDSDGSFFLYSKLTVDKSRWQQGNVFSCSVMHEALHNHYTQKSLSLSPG

| Binder | IC50 [1] [nM] | EC50 [2] [nM] |
| --- | --- | --- |
| Hu303-011 (antibody, human IgG4 S228P, kappa, V domains shown, Humanized mAb303) VH: QVQLVQSGAEVKKPGASVKVSCKASGYTFTDYYMNWVRQAPGQRLEWMGVINPYNGDTAYNQKFKGRVTITVDKSASTAYMELSSLRSEDTAVYYCTRDDGYYDYYFDVWGQGTTVTVSS VL: DIQMTQSPSSLSASVGDRVTITCRASQDIGSRLNWYQQKPGKAPKRLIYATSTLDSGVPKRFSGSRSGTDFTLTISSLQPEDFATYYCLQLASSPPTFGGGTKVEIKR | 0.728 | 0.314 |
| Hu303-015 (antibody, human IgG4 S228P, kappa, V domains shown, Humanized mAb303) VH: QVQLVQSGAEVKKPGASVKVSCKASGYTLTDYYMNWVRQAPGQRLEWMGVINPYNGDTAYNQKFKGRVTITVDKSASTAYMELSSLRSEDTAVYYCTRDDGYYDYYFDVWGQGTTVTVSS VL: DIQMTQSPSSLSASVGDRVTITCRASQDIGSRLNWYQQKPGKAPKRLIYATSTLDSGVPSRFSGSRSGTDFTLTISSLQPEDFATYYCLQLASSPPTFGGGTKVEIKR | 0.398 | 0.172 |
| Hu303-007 (antibody, human IgG4 S228P, kappa, V domains shown, Humanized mAb303) VH: QVQLVQSGAEVKKPGASVKVSCKASGYTFTDYYMNWVRQAPGQRLEWMGVINPYNGDTAYNQKFKGRVTITRDTSASTAYMELSSLRSEDTAVYYCARDDGYYDYYFDVWGQGTTVTVSS VL: DIQMTQSPSSLSASVGDRVTITCRASQDIGSRLNWLQQKPGKAFKRLIYATSTLDSGVPKRFSGSRSGTDFTLTISSLQPEDFATYYCLQLASSPPTFGGGTKVEIKR | 0.343 | 0.135 |
| Hu303-008 (antibody, human IgG4 S228P, kappa, V domains shown, Humanized mAb303) VH: QVQLVQSGAEVKKPGASVKVSCKASGYTFTDYYMNWVRQAPGQRLEWMGVINPYNGDTAYNQKFKGRVTITRDTSASTAYMELSSLRSEDTAVYYCARDDGYYDYYFDVWGQGTTVTVSS VL: DIQMTQSPSSLSASVGDRVTLTCRASQDIGSRLNWLQQKPGGAFKRLIYATSTLDSGVPKRFSGSRSGTDFTLTISSLQPEDFADYYCLQLASSPPTFGGGTKVEIKR | 0.346 | 0.14 |
| Hu229-012 (antibody, human IgG4 S228P, kappa, V domains shown, Humanized mAb229) VH: QVQLVQSGSELKKPGASVKVSCKASGYTFTTSGMSWVKQAPGQGLKWMGWINTYSGVPTYADDFKGRFVFSLDTSVSTAYLQISSLKAEDTATYYCARDNYDARDVYYYAMDYWGQGTTVTVSS VL: DIQMTQSPSSLSASVGDRVTITCRASENIYSNLAWYQQKPGKAPKLLIYAATNLADGVPSRFSGSGSGTDFTLTISSLQPEDFATYYCQHFWITPWTFGGGTKVEIKR | – | 0.268 |

Further binders by falling EC50 [2], results first:

| IC50 [1] [nM] | EC50 [2] [nM] | Binder |
| --- | --- | --- |
| – | 0.506 | Hu229-008 (antibody, human IgG4 S228P, kappa, V domains shown, Humanized mAb229) VH: QVQLVQSGSELKKPGASVKVSCKASGYTFTTSGMSWVRQAPGQGLKWMGWINTYSGVPTYADDFKGRFVFSLDTSVSTAYLQISSLKAEDTAVYYCARDNYDARDVYYYAMDYWGQGTTVTVSS VL: DIQMTQSPSSLSASVGDRVTITCRASENIYSNLAWYQQKPGKAPKLLIYAATNLADGVPSRFSGSGSGTDFTLTISSLQPEDFATYYCQHFWITPWTFGGGTKVEIKR |
| 0.347 | 0.166 | Hu303-013 (antibody, human IgG4 S228P, kappa, V domains shown, Humanized mAb303) VH: QVQLVQSGAEVKKPGASVKVSCKASGYTFTDYYMNWVRQAPGQRLEWMGVINPYNGDTAYNQKFKGRVTITVDKSASTAYMELSSLRSEDTAVYYCTRDDGYYDYYFDVWGQGTTVTVSS VL: DIQMTQSPSSLSASVGDRVTLTCRASQDIGSRLNWLQQKPGGAFKRLIYATSTLDSGVPKRFSGSRSGTDFTLTISSLQPEDFADYYCLQLASSPPTFGGGTKVEIKR |
| 0.361 | 0.164 | Hu303-012 (antibody, human IgG4 S228P, kappa, V domains shown, Humanized mAb303) VH: QVQLVQSGAEVKKPGASVKVSCKASGYTFTDYYMNWVRQAPGQRLEWMGVINPYNGDTAYNQKFKGRVTITVDKSASTAYMELSSLRSEDTAVYYCTRDDGYYDYYFDVWGQGTTVTVSS VL: DIQMTQSPSSLSASVGDRVTITCRASQDIGSRLNWLQQKPGKAFKRLIYATSTLDSGVPKRFSGSRSGTDFTLTISSLQPEDFATYYCLQLASSPPTFGGGTKVEIKR |

Source: patent US20220031842A1 (JIANGSU HENGRUI MEDICINE, published 2022)
